# Laboratory results published in the supplement of paper PMC12042874.
# ± gives the uncertainty stated by the source.
# Assay: amyloid nucleation score (Sup35N fusion, yeast selection) (log enrichment); library NNK3; higher = more nucleation; inactive = no reads after selection
# How it was run: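 The nucleation score equals the log enrichment of output over input reads from DiMSum, centred on the mode score of non-aggregating sequences. It was computed only for sequences with 100 or more input reads. The reads came from Illumina sequencing of plasmid inserts from psi-negative yeast expressing Sup35N fused to peptides of 20 random codons, induced with 100 μM copper sulfate for 24 hours and grown 7 days at 30°C without adenine and uracil.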
row,Substance,amyloid nucleation score
1,LPAMIGIWCILTH,inactive
2,LPGINCARHK,-0.918 ± 1.4
3,LPHPALKDFRISVRQLIWVR,1.04 ± 0.17
4,LPLFRISAPMVMYVLLYVPW,inactive
5,LPLMDKLR,inactive
6,LPNRYVMINGCIRQFAKCDI,1.58 ± 0.08
7,LPSGFLGPLIPVESQIPRTQ,inactive
8,LPVEMKLLIMMRVPSFHFRH,inactive
9,LPVHLDNMCFHVVRAEESRR,inactive
10,LQDIPLFFCCVLFCVATMAL,inactive
11,LQFPPNLSMLCKVTQPSNNW,inactive
12,LQILLSR,inactive
13,LQPKLGIT,inactive
14,LQRTWLKVFGASCFICDDFL,1.99 ± 0.097
15,LRAEVLSSYVTWVHAEGPHC,inactive
16,LRAKFLILWSRFMQGMQGVT,inactive
17,LRCHLRKGSRISRSL,inactive
18,LRCKKRLVRFLHVHEFAVEY,-0.211 ± 0.52
19,LREPRGGSWRRLDCFKCRLG,inactive
20,LRFTRRFYSRGWVRW,inactive
21,LRFVHDVLDFGASMSLRRK,0.606 ± 0.1
22,LRGGMIEPNTRRYS,1 ± 0.15
23,LRGVGDRIGNTSGISGLWPG,0.759 ± 0.19

row,Substance,amyloid nucleation score
1,LRHHSSSVAPVRVGILRCNS,inactive
2,LRMVRSYVLSNGCL,inactive
3,LRPVRYRLCVRFNWMCVRCK,-0.582 ± 0.95
4,LRQSTSMPCNFCIYLEERKD,1.43 ± 0.073
5,LRRQSVMWDKSYAGTWILES,inactive
6,LRSFKSKICVERLRDEIILL,inactive
7,LRTSVFRVLVNSILVKNLIS,inactive
8,LRTTDSGSGIYLTNSVHGFV,inactive
9,LRVFWRTFCVSWSECNKMLE,inactive
10,LRVYYYNMILDDFCVFVLEG,1.48 ± 0.13
11,LRWIGH,inactive
12,LRWMFPLPRNVSHCSLA,inactive
13,LRWSIEGFLVSMMKY,inactive
14,LSAIFLCLSVCLGLHCVGLP,inactive
15,LSCSQKV,inactive
16,LSDSY,inactive
17,LSECRKD,inactive
18,LSELYHTFYSVVNGGHVLMI,inactive
19,LSFPYMMTIFCATRFTDPLM,inactive
20,LSIGFNLWSKLKYSRKVSGM,inactive
21,LSISIMWCFIFGYIFMCSRC,inactive
22,LSISYSIGGDGDMIGNAACV,inactive
23,LSKLPTKMACPLMVRS,0.928 ± 0.24

row,Substance,amyloid nucleation score
1,LSKQIVIRINSNNCNGSVFF,2.7 ± 0.049
2,LSLATTSTLTLPMWKGTRLN,0.744 ± 0.2
3,LSLVDEFQSPLLQLLFVQVA,inactive
4,LSLVQGR,inactive
5,LSMCSLHRNTVFWFRISLMI,inactive
6,LSPGTFCRVDSTPVWVNACP,-0.294 ± 0.47
7,LSRFQVGFHQIDIMRGDVWK,inactive
8,LSSCLSRI,inactive
9,LSSFHHRQVLHRAVAKPFTA,0.245 ± 0.75
10,LSTNTERAFTAWNVIGELGD,inactive
11,LSVNYKLGQYRTLWFHHSLG,inactive
12,LSVVTSTHEDASSLNTTRWM,inactive
13,LSYKIIYTGIGCEYAYGFIE,inactive
14,LSYSAGEIRCVGSCWANESL,inactive
15,LTCWSVVMFTCHP,inactive
16,LTHRAVGLSNVNTPPSFCMR,0.842 ± 0.2
17,LTICAFVVYVFIYKYKMGVM,inactive
18,LTIVAYVVATYSFCWWISVG,inactive
19,LTKCPCRLLCRLRSRARRMG,-0.328 ± 0.98
20,LTLLCSDECWVFMSMGDRTF,inactive
21,LTQMCFTTSVFLRLAWVPFK,inactive
22,LTSESSDEICGGRATSVLCL,inactive
23,LTSMNSGLSYLKLFASQNLR,inactive

row,Substance,amyloid nucleation score
1,LTSPFDPISLPKS,inactive
2,LTTRGRNTRSEDMGEPGLWA,inactive
3,LTWKFSATCIGVKT,inactive
4,LTYHLFYMVADACVIWYDCS,0.833 ± 0.32
5,LTYTHLCEPSEFR,inactive
6,LVCDHGSCVKMVIMTDFMSS,inactive
7,LVCHFLDEDCLFACILQNMR,inactive
8,LVFFFLWHSHENFNHDLVSK,inactive
9,LVFMQRNIENISCCVTLYYQ,2.51 ± 0.071
10,LVGGTTLLIPVCS,inactive
11,LVGLGLGFCYLIKTFVTLLV,inactive
12,LVIASGRVIVIVCYV,inactive
13,LVIIQCSNRGVSKYRLVGTD,1.82 ± 0.071
14,LVILMSSHIEFLGTYFNEKL,inactive
15,LVILVVDSRRYDMCLSNRDF,inactive
16,LVKLCIFGLRDGYTVFEYMG,inactive
17,LVKTCRYRGSDLSVLVGVRI,inactive
18,LVLSWVITEVMDRVWRGSRG,inactive
19,LVNLTVTYISQYFPFYDSPT,2.92 ± 0.062
20,LVRIMYL,inactive
21,LVRKAAVPN,inactive
22,LVRSNGC,inactive
23,LVSERKAKNSRSGSLAFFRR,inactive

row,Substance,amyloid nucleation score
1,LVSLLVWPYLAWCQGCYSVE,inactive
2,LVVLLRFCGRAPGIGQSMGD,inactive
3,LVVRLIDF,inactive
4,LVVYYYLCACNYGARRFSWC,1.15 ± 0.13
5,LVYLAF,inactive
6,LWDDMVIMFGPVICYGMASG,inactive
7,LWIDLWFILYWPGSIDCGEC,-0.288 ± 0.45
8,LWKMILGTFMTQMCL,inactive
9,LWLTLGDGIEGVYPRVGVKL,inactive
10,LWPIGIFKKCYVDRICYYCV,inactive
11,LWRDSGTITDGFECFSME,inactive
12,LWRGLVIWLMLSGLKCGLHL,inactive
13,LWVRIKARTFNFS,0.228 ± 0.19
14,LWWISWRRGSQSMVVSG,inactive
15,LYAYVQVIGDQA,inactive
16,LYGVNSCLIH,inactive
17,LYISNFANEINA,inactive
18,LYIWSIGLLEQLGNGMQASR,inactive
19,LYKGSHWDQAFLSVWYLGVL,inactive
20,LYLLSKRFHNLYLLDKVLKY,inactive
21,LYLVGIMYASTQYTWRQLIN,inactive
22,LYMDYLQNVNLYGMFI,inactive
23,LYNILFWTPNFRFVSWYHCI,inactive
